# Measured values from the FLAb antibody collection.
# Test: melting temperature
# Details: Circular dichroism
row,Sequence,Tm [°C]
1,ARVDOTPRTATKETGESLTINCVLTDTSYGLSSTYWYRKNPGSSNKEQISISGRYVESVNKRTKSFSLRIKDLTVADSATYICNAYIVRGVYGIIAKDVYGDGTALTVK,64
2,ARVEQTPRTATKETGESLTINCVLTGGSCSLYSTSWFRKNPGTTDWERISIGGRYVESVNKGAKSFSLRIKDLTVADSATYYCKAQSCMDSRTVVLDWYEGSGTVLTVK,76
3,AWVDQTPRTATKETGESLTINCVLTGTSCSLYSTSWFRKNPGTTDWERISIGGRYVESVNKGAKSFSLRIKDLTVADSATYYCKAQTADTWITVVIDGYDWYDGAGTALTVK,59
4,DVQLQESGGGLVQPGGSLRLSCAASGFLFSDTYMTWARQAPGKGLEWLGGISKDGSGTLYEDSVEGRFTISRDNAKNTLYLQMNSLKSEDTALYYCSTGALLPTRPQGQGTQVTVSS,51.5
5,EVQLVESGGGLVQPGGSLRLSCAASGSTFSSSSVGWYRQAPGKGLELVSAITSGGSTNTADSVKGRFTISRDNSKNTLYLQMNSLRAEDTAVYYCNVAGRNWVPISRYSPGPYWGQGTLVTVSS,63.3
6,EVQLVESGGGLVQPGGSLRLSCAASGSTFSSSSVGWYRQAPGKQRELVSAITSGGSTNTADSVKGRFTISRDNSKNTLYLQMNSLRAEDTAVYYCNVAGRNWVPISRYSPGPYWGQGTLVTVSS,60.9
7,PRVEQTPRITTKETGESLTINCVLTGTSCNLWTATWFRKNPGTTDWERIRIGGRYVESVNKGAKSFSLRIKDLTVADSATYYCKVQFNLYCGEADWYDGAGTLLTVK,66
8,QLQLVESGGGLVQAGGSLRLSCAASGRTFSSATMGWFRQAPGKEREFVAAISWSGLSRYYADSVKGRFTISRDNAENTVYLQMNSLKTEDTAVYYCAADSWGCSGLGCYDARQYDVWGQGTQVTVSS,98.2
9,QVQLVESGGGLVQAGGSLRLSCAASGRTYTMGWFRQAPGKEREFVAAMRWSDTDYADSLKGRFTISRDNANNAMYLQMNSLGPEDTAVYYCAAGEAWLARSTHHYDYWGQGTQVTVSS,72.3

# Same assay, conditions: DSF (SYPRO)
row,Sequence,Tm [°C]
1,DVQLQASGGGLVQAGGSLRLSCAASGSTFSIKHHGWYRRAPGNQREWVAGINSENITNVAGAVKGRFTISRDNAKNTVYLQMNSLKVEDTAVYFCYAQDNDYRFLHRFWGQGTQVTVSLEPKTPKPQ,52
2,DVQLVESGGGSVQAGGSLRLSCAASGYIASINYLGWFRQAPGKEREGVAAVSPAGGTPYYADSVKGRFTVSLDNAENTVYLQMNSLKPEDTALYYCAAARQGWYIPLNSYGYNYWGQGTQVTVSS,74
3,EVQLQASGGGLVQAGSSLRLSCAASGLTTSTLYRMGWFRQAPGKEREFVGTITWSGGSTHYPDSLKGRFTISRDDAKNTGFLQMDSLKPEDTAIYYCAARTSAGIYDPTSPPAYDSWGQGTQVTVSS,70
4,EVQLQASGGGLVQPGGSLRLACVASGFTLEYSAIGWFRQAPGKEREAVSRIRNRDGRAIYADSVKDRFTISRDNAKSTVYLQMDSLKPEDTATYYCGRHIGVRSSWALPSEYDYWGQGTQYIYSS,60
5,EVQLQASGGGLVQPGGSLRLSCTASGSIFSINAMGWYRQTPRKERELVAAISEGGSTKYGDSVKGRFTISRDFAKNTQMVYLQMNSLKAEDTAVYYCKAQTEGPIADWGTSQYEYWGQGTQVTVSS,51
6,GPHMAQVQLVESGGRLVQAGDSLRLSCAASGRTFSTSAMAWFRQAPGREREFVAAITWTVGNTILGDSVKGRFTISRDRAKNTVDLQMDNLEPEDTAVYYCSARSRGYVLSVLRSVDSYDYWGQGTQVTVS,53.6
7,KVQLVESGGGLVQAGGSLRLACTASGSAFSINTMGWYRRAPGKQRELVASITSSGSTTYADSVKGRFTISRDSAKNTVFLQMNSVKPEDTSVYYCNGEIQRTDYNFWGQGTQVTVSS,59.6
8,QVKLEESGGGLVQAGGSLRLSCAASERTFSRYPVAWFRQAPGAEREFVAVISSTGRSTYYADSVKGRFTISRDNAKVTVYLQMNNLKREDTAVYFCAVNSKRRRLQDPNEYDYWGQGTQVTVSSGSEQKLISEEDLNHHHHHH,81.6
9,QVKLEESGGGLVQAGGSLRLSCAASERTFSRYPVAWFRQAPGAEREFVAVISSTGRSTYYADSVKGRFTISRDNAKVTVYLQMNNLKREDTAVYFCAVNSKRTRLQDPNEYDYWGQGTQVTVSSGSEQKLISEEDLNHHHHHH,81.4
10,QVKLEESGGGLVQAGGSLRLSCAASERTFSRYPVAWFRQAPGAEREFVAVISSTGRSTYYADSVKGRFTISRDNAKVTVYLQMNNLKREDTAVYFCAVNSQRMRLQDPNEYDYWGQGTQVTVSSGSEQKLISEEDLNHHHHHH,77
11,QVKLEESGGGLVQAGGSLRLSCAASERTFSRYPVAWFRQAPGAEREFVAVISSTGTSKYYADSVKGRFTISRDNAKVTVYLQMNNLKREDTAVYFCAVNSQRTRLQDPNEYDYWGQGTQVTVSSGSEQKLISEEDLNHHHHHH,76.9
12,QVKLEESGGGLVQAGGSLRLSCAASERTFSRYPVAWFRQAPGAEREFVAVISSTGTSTYYADSVKGRFTISRDNAKVTVYLQMNNLKREDTAVYFCAVNSKRKRLQDPNEYDYWGQGTQVTVSSGSEQKLISEEDLNHHHHHH,81.5
13,QVKLEESGGGLVQAGGSLRLSCAASERTFSRYPVAWFRQAPGAEREFVAVISSTGTSTYYADSVKGRFTISRDNAKVTVYLQMNNLKREDTAVYFCAVNSKRMRLQDPNEYDYWGQGTQVTVSSGSEQKLISEEDLNHHHHHH,81.3
14,QVKLEESGGGLVQAGGSLRLSCAASERTFSRYPVAWFRQAPGAEREFVAVISSTGTSTYYADSVKGRFTISRDNAKVTVYLQMNNLKREDTAVYFCAVNSKRRRLQDPNEYDYWGQGTQVTVSSGSEQKLISEEDLNHHHHHH,81.9
15,QVKLEESGGGLVQAGGSLRLSCAASERTFSRYPVAWFRQAPGAEREFVAVISSTGTSTYYADSVKGRFTISRDNAKVTVYLQMNNLKREDTAVYFCAVNSKRTRLQDPNEYDYWGQGTQVTVSSGSEQKLISEEDLNHHHHHH,81.4
16,QVKLEESGGGLVQAGGSLRLSCAASERTFSRYPVAWFRQAPGAEREFVAVISSTGTSTYYADSVKGRFTISRDNAKVTVYLQMNNLKREDTAVYFCAVNSQRKRLQDPNEYDYWGQGTQVTVSSGSEQKLISEEDLNHHHHHH,78.5
17,QVKLEESGGGLVQAGGSLRLSCAASERTFSRYPVAWFRQAPGAEREFVAVISSTGTSTYYADSVKGRFTISRDNAKVTVYLQMNNLKREDTAVYFCAVNSQRMRLQDPNEYDYWGQGTQVTVSSGSEQKLISEEDLNHHHHHH,77.4
18,QVKLEESGGGLVQAGGSLRLSCAASERTFSRYPVAWFRQAPGAEREFVAVISSTGTSTYYADSVKGRFTISRDNAKVTVYLQMNNLKREDTAVYFCAVNSQRRRLQDPNEYDYWGQGTQVTVSSGSEQKLISEEDLNHHHHHH,79.1

row,Sequence,Tm [°C]
1,QVKLEESGGGLVQAGGSLRLSCAASERTFSRYPVAWFRQAPGAEREFVAVISSTGTSTYYADSVKGRFTISRDNAKVTVYLQMNNLKREDTAVYFCAVNSQRTRLLDPNEYDYWGQGTQVTVSSGSEQKLISEEDLNHHHHHH,80
2,QVKLEESGGGLVQAGGSLRLSCAASERTFSRYPVAWFRQAPGAEREFVAVISSTGTSTYYADSVKGRFTISRDNAKVTVYLQMNNLKREDTAVYFCAVNSQRTRLQDPREYDYWGQGTQVTVSSGSEQKLISEEDLNHHHHHH,77.6
3,QVKLEESGGGLVQAGGSLRLSCAASERTFSRYPVAWFRQAPGAEREFVAVISSTGTSTYYADSVKGRFTISRDNAKVTVYLQMNNLKREDTAVYFCAVNSQRTRLQNPNEYDYWGQGTQVTVSSGSEQKLISEEDLNHHHHHH,74.9
4,QVKLEESGGGLVQAGGSLRLSCAASERTFSRYPVAWFRQAPGAEREFVAVISSTGTSTYYADSVKGRFTISRDNAKVTVYLQMNNLKREDTAVYFCAVNSQRTRLQYPNEYDYWGQGTQVTVSSGSEQKLISEEDLNHHHHHH,73.4
5,QVKLEESGGGLVQAGGSLRLSCAASERTFSRYPVAWFRQAPGAEREFVAVISSTGTSTYYADSVKGRFTISRDNAKVTVYLQMNNLKREDTAVYFCAVNSQRTRLWDPNEYDYWGQGTQVTVSSGSEQKLISEEDLNHHHHHH,79.7
6,QVKLEESGGGLVQAGGSLRLSCAASERTFSRYPVAWFRQAPGAEREFVAVISSTGTSTYYADSVKGRFTISRDNAKVTVYLQMNNLKREDTAVYFCAVNSQRTRLYDPNEYDYWGQGTQVTVSSGSEQKLISEEDLNHHHHHH,79
7,QVKLEESGGGLVQAGGSLRLSCAASERTFSRYPVAWFRQAPGAEREFVAVISSTGTSTYYADSVKGRFTISRDNAKVTVYLQMNNLKREDTAVYFCAVNSQRTWLQDPNEYDYWGQGTQVTVSSGSEQKLISEEDLNHHHHHH,77.3
8,QVKLEESGGGLVQAGGSLRLSCAASERTFSRYPVAWFRQAPGAEREFVAVISSTGTSTYYADSVKGRFTISRDNAKVTVYLQMNNLKREDTAVYFCAVNSQRWRLQDPNEYDYWGQGTQVTVSSGSEQKLISEEDLNHHHHHH,77.5
9,QVQLQESGGGLVQPGGSLRLSCAASGFTISTTAMSWVRQAPGKGIEWVSTIFASGETTSYADFVQGRFITSRDNTKNTLYLQLNNLKTEDTAMYFCAAADDFGGLNNRYRGQGTQVTVSS,60.7
10,QVQLQESGGGSVQAGGSLKLSCAASGYIFSSCAMSWYRQAPGKERELVSSITSYGDAAYTDSAKGRFTISRDNAKNTLYLHLNNLKPEDTAVYFCAACPRNKYWGQGTQVTVSS,68.4
11,QVQLQESGGGSVQAGGSLKLSCDASTYTYGGKCMGWFRQAPGKEREFVAFIESDGRTSYADSVKGRFTISQDDAKNTVYLQMNSLKPEDTSMYYCKTAAGAFCGTRSYGFWGQGTQVTVSS,57.2
12,QVQLQESGGGSVQAGGSLRLPCVASGYIYSPTKMGWFRQAPGKERELVSSITRDGRPYYSDSVKGRFTISQDNAKNTVYLQMNSLKPEDTAMYYCFADVRLSAVGGIKTYWDQGTQVTVSS,58.6
13,QVQLQESGGGSVQAGGSLRLSCAASGWTYSTATMGWYRQAPGKERELVSSIFSDENTYYKDSVKGRFTISRDAAKNTVYLQMNSLKPEDTAMYYCYIRPTTSLANWRWGQGTQVTVSS,59.7
14,QVQLQESGGGSVQAGGSLRLSCAASGYTYTMGWFRQAPGKEREGVTIIYTGYDNIVYADSVKGRFTISRDNAKNTVYLQMNNLKPEDTAMYHCAAATRGLPRSYFDPGWYDSWGQGTQVTVSS,62.5
15,QVQLQESGGGSVQAGGSLRLSCAVSGYTYSRNCIGWFRQAPGKEREGVAALYTGGGSTYYAASVKGRFTISQDTKNTVYLQMNSLKPEDSAMYYCAANPFGLYTCGDLRGPDFGYWGQGTQVTVSS,71
16,QVQLQESGGGSVQAGGSLRLSCAVSGYTYSSYSIGWFRQAPGKEREGVAAINSGGSTNYAGSVEGRFTISQDNAKNTVSLLMNSLKPEDTATYYCAVGAFFTLRPTLYNYKGQGTQVTVSS,48.3
17,QVQLQESGGGSVQAGGSLRLSCESSGMTFSVYNLGLRQAPGQECELSTITRDGSTDYADSMKGRFTISRDNAKNTMYLQMTSLKPDDTAVYYCAAGVGVVDCTEGQGTQVTVSS,51.8
18,QVQLQESGGGSVQAGGSLRLSCVASEYDFNSYSSVSVGWFRQAPGKECVLVSRIGNDARTDYSDNVKGRFTISRDNAKRTAYLEMNSLKAEDTAVYYCAANQLSSAVVGTEYPCSKAAFAHWGQGTQVTVSS,64.8

# Same assay, conditions: Other
row,Sequence,Tm [°C]
1,QVQLVESGGGLVQAGGSLRLSCAASGYAYTYIYMGWFRQAPGKEREGVAAMDSGGGGTLYADSVKGRFTISRDKGKNTVYLQMDSLKPEDTATYYCAAGGYELRDRTYGQWGQGTQVTVSSAAALEHHHHHH,64.2

# Same assay, conditions: nanoDSF
row,Sequence,Tm [°C]
1,KVQLVESGGGLVQAGGSLRLACTASGSAFSINTMGWYRRAPGKQRELVASITSSGSTTYADSVKGRFTISRDSAKNTVFLQMNSVKPEDTSVYYCNGEIQRTDYNFWGQGTQVTVSS,63.5
2,QVQLQESGGGSVQAGGSLKLSCAASGYIFSSCAMSWYRQAPGKERELVSSITSYGDAAYTDSAKGRFTISRDNAKNTLYLHLNNLKPEDTAVYFCAACPRNKYWGQGTQVTVSS,63.6
3,QVQLQESGGGSVQAGGSLKLSCDASTYTYGGKCMGWFRQAPGKEREFVAFIESDGRTSYADSVKGRFTISQDDAKNTVYLQMNSLKPEDTSMYYCKTAAGAFCGTRSYGFWGQGTQVTVSS,60.8
4,QVQLQESGGGSVQAGGSLRLPCVASGYIYSPTKMGWFRQAPGKERELVSSITRDGRPYYSDSVKGRFTISQDNAKNTVYLQMNSLKPEDTAMYYCFADVRLSAVGGIKTYWDQGTQVTVSS,63.3
5,QVQLQESGGGSVQAGGSLRLSCAASGWTYSTATMGWYRQAPGKERELVSSIFSDENTYYKDSVKGRFTISRDAAKNTVYLQMNSLKPEDTAMYYCYIRPTTSLANWRWGQGTQVTVSS,63.9
6,QVQLQESGGGSVQAGGSLRLSCAASGYTYTMGWFRQAPGKEREGVTIIYTGYDNIVYADSVKGRFTISRDNAKNTVYLQMNNLKPEDTAMYHCAAATRGLPRSYFDPGWYDSWGQGTQVTVSS,70
7,QVQLQESGGGSVQAGGSLRLSCAVSGYTYSSYSIGWFRQAPGKEREGVAAINSGGSTNYAGSVEGRFTISQDNAKNTVSLLMNSLKPEDTATYYCAVGAFFTLRPTLYNYKGQGTQVTVSS,53.6
8,QVQLQESGGGSVQAGGSLRLSCVASEYDFNSYSSVSVGWFRQAPGKECVLVSRIGNDARTDYSDNVKGRFTISRDNAKRTAYLEMNSLKAEDTAVYYCAANQLSSAVVGTEYPCSKAAFAHWGQGTQVTVSS,64.5
